The supplement of paper PMC12042874
± gives the uncertainty stated by the source.

Assay: amyloid nucleation score (Sup35N fusion, yeast selection) (log enrichment); library NNK2; higher = more nucleation; inactive = no reads after selection
Procedure, shortened: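 Yeast lacking psi expressed peptides of 20 random codons fused to Sup35N, received 100 μM copper sulfate for 24 hours, and were then grown for 7 days at 30°C on medium lacking adenine and uracil. Illumina sequencing of input and output plasmid inserts provided the reads. Nucleation scores are DiMSum log enrichments of output over input, centred on the mode of non-aggregating sequences. Any sequence with under 100 input reads was excluded.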
With MRTRWAVITKMFRRGWEVKV the amyloid nucleation score was 0.753 ± 0.67.
For MRVNECCKAEGSQGRLARLV, the amyloid nucleation score was 0.97 ± 0.55.
MRWFNNVFFGYVVSVSRSWN gave an amyloid nucleation score of -1.01 ± 1.1.
MRYYWMWHKVVM showed an amyloid nucleation score of 0.069 ± 0.29.
MSAMPDWFPLQWNWRLGQVL gave an amyloid nucleation score of 1.33 ± 0.18.
MSFYPRWFSQGMLWCKHHHA showed an amyloid nucleation score of 0.516 ± 0.81.
MSMATTWSIFDWVEREFPFY showed an amyloid nucleation score of -0.933 ± 0.55.
In the case of MSMYDAAIEFLLRCGYVRSY, the amyloid nucleation score is reported as 0.328 ± 0.34.
MSNDRDVVKVWFFPYDPHQS showed an amyloid nucleation score of -0.378 ± 0.26.
In the case of MSSNYWY, the amyloid nucleation score is reported as -0.916 ± 1.1.
With MSSPD the amyloid nucleation score was 6.596 ± 0.034.
For MSTGRCILRPFLGSPRSSVV, the amyloid nucleation score was “inactive”.
MSTIITALEFNG showed an amyloid nucleation score of 0.188 ± 0.62.
In the case of MSVSLLSDIN, the amyloid nucleation score is reported as -0.497 ± 1.
For MTMFTCMWVNRER, the amyloid nucleation score was 4.79 ± 0.057.
For MTQRHFLVDTGRKAR, the amyloid nucleation score was 1.22 ± 0.48.
For MTTYAVLGVPI, the amyloid nucleation score was -0.421 ± 0.28.
With MTYIRFPLMQGHFWIMSNSK the amyloid nucleation score was 0.181 ± 0.35.
Work on MVHMGGDDMCCGIVVWTQAP yielded an amyloid nucleation score of 11.85 ± 0.066.
For MVPGDRCPIAKNHFFPKINL, the amyloid nucleation score was -0.335 ± 0.45.
With MWESQGHSLAV the amyloid nucleation score was “inactive”.
MWGIRSYLVKVL showed an amyloid nucleation score of -0.291 ± 0.76.
With MWISFFCRRYSNIWTGFGYM the amyloid nucleation score was -1.09 ± 1.
Substance MWPHRFM has an amyloid nucleation score of 0.72 ± 0.28.
MWRFRPLRSDTLRYDGSMGC showed an amyloid nucleation score of -0.021 ± 0.76.
MWTIIMGMVILPRNRNL showed an amyloid nucleation score of 3.8 ± 0.078.
With MWVWQEPDVWARLCLDGYEK the amyloid nucleation score was -0.127 ± 0.45.
In the case of MYEAAGSDREVLRKYEHSSV, the amyloid nucleation score is reported as -0.22 ± 0.4.
Substance MYIMLFRFVRIVDLLDCLGN has an amyloid nucleation score of 0.207 ± 0.43.
Work on MYMARCKASTVSDYQNS yielded an amyloid nucleation score of -0.393 ± 0.55.
Substance MYRVLAICNRTVRKG has an amyloid nucleation score of -0.562 ± 0.61.
For MYRYSWHDVFCVSKCSEVS, the amyloid nucleation score was “inactive”.
Work on MYYCLGILCGVSTRRGEMSC yielded an amyloid nucleation score of 1.17 ± 0.41.
Work on NAIYLVRMDYS yielded an amyloid nucleation score of 0.138 ± 0.23.
In the case of NALVVLDMFLTIRSSVKGFI, the amyloid nucleation score is reported as “inactive”.
For NARICDTLVLKLLTVLLENG, the amyloid nucleation score was 3.44 ± 0.12.
In the case of NARWKDVYHPLTYCFVNLWT, the amyloid nucleation score is reported as 8.115 ± 0.034.
With NATEGFESFWM the amyloid nucleation score was “inactive”.
For NCDRPTLEMSVNRRLFSCPE, the amyloid nucleation score was 0.54 ± 0.27.
Substance NCECMRWDDF has an amyloid nucleation score of -0.561 ± 0.38.
In the case of NCFDKMHKIWLFLLSLSIFC, the amyloid nucleation score is reported as “inactive”.
Substance NCGLCGILHHL has an amyloid nucleation score of 8.14 ± 0.072.
In the case of NCQRVWYCWVALSLCETCID, the amyloid nucleation score is reported as 5.168 ± 0.047.
Substance NCSCIFKNCGFNWVFLGRIL has an amyloid nucleation score of 2.29 ± 0.17.
For NCSSMFCIICKKCCVDAFIL, the amyloid nucleation score was 3.73 ± 0.048.
NDCRMFRELTYVPHRERC showed an amyloid nucleation score of 0.708 ± 0.49.
With NDKTYLPGRHSYGSCYVIVW the amyloid nucleation score was 0.561 ± 0.64.
In the case of NDLESMYSEGFPLLNTAHK, the amyloid nucleation score is reported as “inactive”.
For NDLSWVRLSYHGLVLLGDVM, the amyloid nucleation score was 0.193 ± 0.34.
With NDNFLCSAIVFCMAVFRFGW the amyloid nucleation score was “inactive”.
Substance NDRRRRGCRWMVAALVSSVL has an amyloid nucleation score of 0.966 ± 0.53.
Substance NDSMDHRQSYWGLNPFVYIV has an amyloid nucleation score of 0.158 ± 0.65.
Substance NEDTAGTRRLHPRYGVADWS has an amyloid nucleation score of 0.88 ± 0.18.
Work on NEENVEVFCYRVSGSYRCYQ yielded an amyloid nucleation score of 4.36 ± 0.094.
Work on NEIFGTVIC yielded an amyloid nucleation score of -1.12 ± 1.
For NELEHVFLMRYKC, the amyloid nucleation score was “inactive”.
NELFWFNMSFSCPKWGICNL showed an amyloid nucleation score of 4.17 ± 0.043.
NEPETLWFLLVVWEGINISP gave an amyloid nucleation score of 0.561 ± 0.64.
With NFCFVWLSREYHRLALCSGV the amyloid nucleation score was “inactive”.
NFIDRQLSILYMMFLITEC showed an amyloid nucleation score of -0.774 ± 1.1.
NFMNKMFALTWCCIDKILCG gave an amyloid nucleation score of -1.1 ± 0.78.
Substance NFNGYM has an amyloid nucleation score of -1.09 ± 0.3.
For NFNVQKIFNGDCDLVWRGFV, the amyloid nucleation score was -1.31 ± 0.76.
NFQMTVRYWVKDGVESQEIN gave an amyloid nucleation score of 4.192 ± 0.033.
For NFRGTVLLAR, the amyloid nucleation score was 0.468 ± 0.74.
NFSSWSER gave an amyloid nucleation score of -0.885 ± 0.54.
In the case of NFYIATIRTAFLSVMAVRN, the amyloid nucleation score is reported as 3.29 ± 0.089.
In the case of NGADWATRRIWVSVRAVMGR, the amyloid nucleation score is reported as 0.513 ± 0.32.
With NGCSYLERVYVVCYDDMAFG the amyloid nucleation score was 0.336 ± 0.5.
NGDMWKHIKRRQVNNRG showed an amyloid nucleation score of 0.881 ± 0.67.
NGFYSGDFWEADGTRLDVTC gave an amyloid nucleation score of 0.053 ± 0.79.
NGGSGNQVMLEVTNLVFK showed an amyloid nucleation score of 5.295 ± 0.044.
With NGISYQRMTGNGFVESNGAS the amyloid nucleation score was 4.683 ± 0.034.
Work on NGITDV yielded an amyloid nucleation score of -0.414 ± 0.45.
With NGLLSRNCIWSFGFESEVEG the amyloid nucleation score was “inactive”.
With NGLYCFEVLLGSSAFPWTG the amyloid nucleation score was 3.63 ± 0.082.
With NGLYVAIFSVNLFPPLTKYI the amyloid nucleation score was 5.422 ± 0.053.
For NGRETEFQFTRVDVWNFSVM, the amyloid nucleation score was 5.065 ± 0.046.
Work on NGRLWNGFMYCGWTNWFFCV yielded an amyloid nucleation score of 1.11 ± 0.34.
For NGVDMVVAAGLSGCRWGRIR, the amyloid nucleation score was 0.249 ± 0.39.
NGVRSWSQHLWKRGRWEG showed an amyloid nucleation score of 1.69 ± 0.3.
NGWLFFWFSIRITTSQVTSL gave an amyloid nucleation score of 2.54 ± 0.098.
With NHCPHTKWGTTYCAHGCIHA the amyloid nucleation score was 0.639 ± 0.46.
NHWWIHYDDLLLAHDFLHLW gave an amyloid nucleation score of 0.055 ± 0.42.
NIAMSDMDILLMQRAQKWLR gave an amyloid nucleation score of 1.1 ± 0.54.
NIGSWGVSRLSCLYAGLANG showed an amyloid nucleation score of 0.549 ± 0.42.
Substance NILVTRNNKHTSFCYTSLLL has an amyloid nucleation score of 2.22 ± 0.084.
NIRNRSVNDLIRRDAYRLAL showed an amyloid nucleation score of -0.175 ± 0.8.
With NIRWRGNPFPCIVRNSVGEI the amyloid nucleation score was 0.097 ± 0.31.
Work on NISGV yielded an amyloid nucleation score of -0.644 ± 0.76.
For NISSLSNNARVIVYFCVRYQ, the amyloid nucleation score was “inactive”.
In the case of NITKTRHFLSLNYYNVYAFS, the amyloid nucleation score is reported as 5.05 ± 0.056.
In the case of NIWFKFPHVLNS, the amyloid nucleation score is reported as -0.063 ± 0.76.
With NKCQMSCNRRYEDMGYDRCM the amyloid nucleation score was 0.038 ± 0.53.
For NKKIIYDQIFIRMGSFQLN, the amyloid nucleation score was “inactive”.
NKLFPAWLPMCVFWFYGFLA showed an amyloid nucleation score of -0.138 ± 0.53.
Substance NKRGQFMNMQLEKSLYFQGL has an amyloid nucleation score of -1.15 ± 0.76.
For NLCDLDRGNEYAWWRVFMRS, the amyloid nucleation score was 4.38 ± 0.11.
Substance NLDVSYYVIYIKPGRYPV has an amyloid nucleation score of 6.09 ± 0.078.
In the case of NLFNLSCHGLLNERKHLSGV, the amyloid nucleation score is reported as -0.442 ± 0.44.
In the case of NLHVHL, the amyloid nucleation score is reported as 3.64 ± 0.056.
NLISKDIVLHWSRALC gave an amyloid nucleation score of 0.339 ± 0.56.
With NLNVGALSSKWVW the amyloid nucleation score was “inactive”.
Work on NLPSWLVGRRSVWECYRLDT yielded an amyloid nucleation score of 0.043 ± 1.
In the case of NLQRFSQPKIHRPNTMPLNV, the amyloid nucleation score is reported as “inactive”.
NLRVAALAEGPRVNYRVSGW gave an amyloid nucleation score of 0.69 ± 0.43.
NLSFKSMYLVERWICHRKGR gave an amyloid nucleation score of 1.14 ± 0.18.
Work on NLSFLEPLYWNEVSYFVRCC yielded an amyloid nucleation score of 6.369 ± 0.023.
NLVTYDLE gave an amyloid nucleation score of 3.79 ± 0.052.
NLVYYYHLLSRIVNSYNDAL showed an amyloid nucleation score of 0.811 ± 0.82.
NMFGLPKLVLSDLVVRV showed an amyloid nucleation score of 1.72 ± 0.15.
With NMIVYC the amyloid nucleation score was “inactive”.
NMPMQSYTIMVWSLQGMAAG gave an amyloid nucleation score of 0.705 ± 0.56.
NMYTWAE gave an amyloid nucleation score of 0.371 ± 0.6.
Substance NNAMWSWSS has an amyloid nucleation score of -0.039 ± 0.41.
For NNFSVSFLGVDVF, the amyloid nucleation score was -0.199 ± 0.74.
NNFWFKLQIM showed an amyloid nucleation score of 6.18 ± 0.064.
Substance NNINLTYRLYSVLDHYKLYE has an amyloid nucleation score of 2.66 ± 0.088.
For NNLHPDYDMGIGYIIDGDPA, the amyloid nucleation score was -0.34 ± 0.62.
With NNSHPRNKLSWIVRLCVKLI the amyloid nucleation score was “inactive”.
For NNSWTDLRCVIYMSITGEPH, the amyloid nucleation score was 8.633 ± 0.044.
Substance NNVPCEKHRHASMYINAA has an amyloid nucleation score of -0.081 ± 1.1.
NPALNRLMDGVNRFPLKCYV gave an amyloid nucleation score of -0.338 ± 0.23.
In the case of NPELRRGWFTWYPVGPGMKQ, the amyloid nucleation score is reported as 0.175 ± 0.54.
